{
  "source": "paper PMC3182996",
  "key": {"[1]": {"target": "Aβ^40WT fibrils (pre-formed fibrils of wild type Aβ1–40) (UniProt P05067)", "assay": "SPR; co-injection: 2 µM Aβ injected for 30 s over immobilised pre-formed fibrils at 20 µl/min in PBS at 25°C, at once followed by 0–400 nM Aβ; the concentration that gives a plateau (critical concentration) is taken as the binding constant"}, "[2]": {"target": "Aβ^40Arc fibrils (pre-formed fibrils of Aβ1–40 Glu22Gly)", "assay": "SPR; co-injection: 2 µM Aβ injected for 30 s over immobilised pre-formed fibrils at 20 µl/min in PBS at 25°C, at once followed by 0–400 nM Aβ; the concentration that gives a plateau (critical concentration) is taken as the binding constant"}},
  "data": [
    {"substance": "Aβ1–40 Glu22Gly (Arctic variant), monomeric (peptide)", "values": [
      {"measurement": "Kd", "setting": "[1]", "result": 50, "unit": "nM"},
      {"measurement": "Kd", "setting": "[2]", "result": 100, "unit": "nM"}
    ]}
  ]
}
